Experimental findings from PMC11910589 are described below.

Assay in all cases: fluorescence polarization
In general terms: In fluorescence polarisation assays a small probe gives low polarisation when free and higher when bound to something large.

The target in data set [1] is T1, dP75 PWWP (Drosophila melanogaster, UniProt Q9VAA9 9-90).
T1 sequence: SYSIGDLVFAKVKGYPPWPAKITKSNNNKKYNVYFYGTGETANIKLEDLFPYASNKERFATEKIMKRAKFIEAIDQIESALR

The target of data set [2] is T1, dP75 PWWP. The source holds these as a separate data set.
Data set [3] deals with T1, dP75 PWWP. This is another data set of the same source.
Data set [4] has as its target T1, dP75 PWWP. This is another data set of the same source.
The next data set concerns the target T2, dP75 PWWP E48A (Drosophila melanogaster, UniProt Q9VAA9 9-90, E48A).
T2 sequence: T1 sequence with E40A

A further data set has as its target T3, dP75 PWWP F43A (Drosophila melanogaster, UniProt Q9VAA9 9-90, F43A).
T3 sequence: T1 sequence with F35A

The next data set has as its target T4, dP75 PWWP Y23A (Drosophila melanogaster, UniProt Q9VAA9 9-90, Y23A).
T4 sequence: T1 sequence with Y15A

The next data set has as its target LEDGF/p75 PWWP (Homo sapiens, UniProt O75475 4-89).
The target in the next data set is T5, dP75 PWWP K38A (Drosophila melanogaster, UniProt Q9VAA9 9-90, K38A).
T5 sequence: T1 sequence with K30A

A further data set addresses T6, dP75 PWWP K53A (Drosophila melanogaster, UniProt Q9VAA9 9-90, K53A).
T6 sequence: T1 sequence with K45A

Residue numbers refer to the chain shown, from its start. Where two headings read alike, the source gives them in different places.

Sequence of LEDGF/p75 PWWP (O75475 4-89): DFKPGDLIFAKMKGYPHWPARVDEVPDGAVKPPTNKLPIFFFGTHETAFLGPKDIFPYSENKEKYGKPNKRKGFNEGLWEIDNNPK

B1: 12 bp poly(A:T) (dsDNA)
DNA 1: TTTTTTTTTTTT
DNA 2: AAAAAAAAAAAA
Take B1: in the data set with dP75 PWWP [1], the Kd – broadly, the concentration at which binding is half-saturated – came out at 18.2 ± 1.17 µM. CCCCCCCCCCCC (ssDNA) [FAM-12C (polyC)] displayed a Kd in the data set with dP75 PWWP [2] of 151 ± 38.9 µM. Take AAAAAAAAAAAA (ssDNA) [FAM-12A (polyA)]: the binding result in the data set with dP75 PWWP [3] was “no binding”. For GGGGGGGGGGGG (ssDNA) [FAM-12G (polyG)], the binding result in the data set with dP75 PWWP [4] is on record as “no binding”. On to TTTTTTTTTTTT (ssDNA) [FAM-12T (polyT)], for which the Kd was 64.2 ± 2.8 µM with dP75 PWWP E48A, 24.2 ± 1.1 µM in the data set with dP75 PWWP [2], 60.9 ± 0.9 µM with dP75 PWWP K38A and 109 ± 2.9 µM with dP75 PWWP K53A. For the same molecule, the binding result with dP75 PWWP F43A, with dP75 PWWP Y23A and with LEDGF/p75 PWWP was “no binding” in each case.

B2: 20 bp random (dsDNA)
DNA 1: CGATCTGCGTCAGCTGTAGC
DNA 2: GCTACAGCTGACGCAGATCG
For the molecule B2, in the data set with dP75 PWWP [2], the binding result is “no binding”.

B3: 12 bp poly(G:C) (dsDNA)
DNA 1: GGGGGGGGGGGG
DNA 2: CCCCCCCCCCCC
Consider B3, for which the binding result with dP75 PWWP [2] was “no binding”.
